According to IntAct's records for PubMed 12502741:

B1: Retinoblastoma-associated protein (Homo sapiens), P06400 (parent)
chain: MPPKTPRKTAATAAAAAAEPPAPPPPPPPEEDPEQDSGPEDLPLVRLEFEETEEPDFTALCQKLKIPDHVRERAWLTWEKVSSVDGVLGGYIQKKKELWGICIFIAAVDLDEMSFTFTELQKNIEISVHKFFNLLKEIDTSTKVDNAMSRLLKKYDVLFALFSKLERTCELIYLTQPSSSISTEINSALVLKVSWITFLLAKGEVLQMEDDLVISFQLMLCVLDYFIKLSPPMLLKEPYKTAVIPINGSPRTPRRGQNRSARIAKQLENDTRIIEVLCKEHECNIDEVKNVYFKNFIPFMNSLGLVTSNGLPEVENLSKRYEEIYLKNKDLDARLFLDHDKTLQTDSIDSFETQRTPRKSNLDEEVNVIPPHTPVRTVMNTIQQLMMILNSASDQPSENLISYFNNCTVNPKESILKRVKDIGYIFKEKFAKAVGQGCVEIGSQRYKLGVRLYYRVMESMLKSEEERLSIQNFSKLLNDNIFHMSLLACALEVVMATYSRSTSQNLDSGTDLSFPWILNVLNLKAFDFYKVIESFIKAEGNLTREMIKHLERCEHRIMESLAWLSDSPLFDLIKQSKDREGPTDHLESACPLNLPLQNNHTAADMYLSPVRSPKKKGSTTRVNSTANAETQATSAFQTQKPLKSTSLSLFYKKVYRLAYLRLNTLCERLLSEHPELEHIIWTLFQHTLQNEYELMRDRHLDQIMMCSMYGICKVKNIDLKFKIIVTAYKDLPHAVQETFKRVLIKEEEYDSIIVFYNSVFMQRLKTNILQYASTRPPTLSPIPHIPRSPYKFPSSPLRIPGGNIYISPLKSPYKISEGLPTPTKMTPRSRILVSIGESFGTSEKFQKINQMVCNSDRVLKRSAEGSNPPKPLKKLRFDIEGSDEADGSKHLPGESKFQQKLAEMTSTRTRMQKQKMNDSMDTSNKEEK

Variants of: B1
Conditions: with e2f1_human E2F1, Q01094
e2f1_human E2F1, Q01094, sequence (Q01094 whole entry): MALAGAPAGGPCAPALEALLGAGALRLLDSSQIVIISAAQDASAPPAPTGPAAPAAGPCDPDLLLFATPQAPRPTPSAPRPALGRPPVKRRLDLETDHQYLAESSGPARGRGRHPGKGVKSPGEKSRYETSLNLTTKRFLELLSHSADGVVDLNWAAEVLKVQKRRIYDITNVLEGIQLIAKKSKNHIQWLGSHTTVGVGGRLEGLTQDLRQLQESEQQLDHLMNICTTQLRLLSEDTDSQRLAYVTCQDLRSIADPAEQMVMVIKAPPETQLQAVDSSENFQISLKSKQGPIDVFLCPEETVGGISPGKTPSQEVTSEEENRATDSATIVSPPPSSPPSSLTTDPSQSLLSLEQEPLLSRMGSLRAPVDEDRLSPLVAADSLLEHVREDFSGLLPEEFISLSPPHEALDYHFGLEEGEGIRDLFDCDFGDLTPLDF

Row | Variant | effect of a mutation on the interaction
1 | E554A | decreasing interaction strength
2 | R467A | decreasing interaction strength
3 | F482A | decreasing interaction strength
4 | K653A | decreasing interaction strength
